Data set [1] can be described thus: Plasma pharmacokinetics in rats (toxicology studies). As to conditions: rats. On the procedure:
(§1) Example 11 is administered in a single 3 mg/kg dose to male and female monkeys by SC bolus injection.

The nature of data set [2]: in vivo. The settings on record: rat, plasma, sc, 2.18 mg/kg/day.
From the text: At the end of designated infusion phase, blood samples are collected to determine plasma concentration and the infusion pump is removed.
Data set [3] is described as follows: Plasma pharmacokinetics in monkeys (toxicology studies). As to conditions: cynomolgus monkey, in vivo, sc. On the procedure: as §1
A short description of data set [4]: in vivo. The settings on record: rat, plasma, sc.
From the text: (§2) On Day 4, blood samples are collected to determine plasma concentration and the infusion pump is removed.
The conditions of data set [5]: Day 4 (96 hours), steady state.
From the text: as §2
In data set [6] the target is T1, HER4 receptor extracellular domain (ECD) (Homo sapiens, UniProt Q15303).
T1 construct: C-terminal His-tagged HER4 receptor extracellular domain (ECD) construct
T1 sequence (Q15303 26-651 limits assumed): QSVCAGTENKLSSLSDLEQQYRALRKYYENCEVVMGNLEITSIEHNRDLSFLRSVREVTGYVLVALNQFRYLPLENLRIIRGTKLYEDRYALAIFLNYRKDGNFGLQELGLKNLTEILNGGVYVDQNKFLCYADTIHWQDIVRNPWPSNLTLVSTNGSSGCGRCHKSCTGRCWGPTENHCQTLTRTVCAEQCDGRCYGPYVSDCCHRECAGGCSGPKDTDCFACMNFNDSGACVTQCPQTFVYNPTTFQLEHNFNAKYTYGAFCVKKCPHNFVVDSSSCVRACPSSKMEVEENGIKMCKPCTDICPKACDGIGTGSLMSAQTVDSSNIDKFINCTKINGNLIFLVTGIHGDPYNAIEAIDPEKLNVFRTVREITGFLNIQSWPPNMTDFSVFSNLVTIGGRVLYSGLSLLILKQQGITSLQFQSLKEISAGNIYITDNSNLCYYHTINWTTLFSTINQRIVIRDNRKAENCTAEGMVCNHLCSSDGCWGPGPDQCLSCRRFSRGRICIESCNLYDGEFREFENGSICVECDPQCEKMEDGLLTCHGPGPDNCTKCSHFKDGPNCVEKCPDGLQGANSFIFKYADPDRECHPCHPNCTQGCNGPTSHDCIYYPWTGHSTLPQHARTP
The experiment in a line: HER4/NRG-Fc binding assay (ELISA) for screening NRG4 variants. On the procedure: A binding assay is utilized to perform high-throughput screening of NRG4 variant Fc fusion proteins to HER4 receptor, to identify affinity-driven variants with the potential to increase receptor activation and signaling. ELISA plates are coated with an anti-His tag antibody at 2 μg/ml in PBS to facilitate the standardized capture of a C-terminal His-tagged HER4 receptor extracellular domain (ECD) construct after blocking the plate with 1% BSA/PBS/0.1% Tween 20 (HER4 ECD at 5 μg/ml). Saturating amounts of unpurified NRG4-Fc variants in expression media (Starting at 10 μg/ml with serial dilutions in 1% BSA/PBS/0.1% Tween 20) are incubated with the captured receptor for 1 hour. After washing, bound variant NRG4-Fc is detected colorimetrically with an anti-human Fc-specific alkaline phosphatase secondary detection reagent to quantitate binding. Incubation times of variant binding to receptor or durations of the subsequent wash steps are varied to further identify binding variants driven by affinity on-rate and off-rate, respectively.

Another data set deals with T2, human HER2 and HER4 (Homo sapiens, UniProt Q15303).
T2 construct: expressed in transfected cells
The experiment in a line: Screening by human HER2-HER4 mediated ERK 1/2 phosphorylation in CHO-hHER2-hHER4 (clone 1H6) cells. The format is cell-based. The settings on record: Table 5; Fc variants as 293F supernatants; Examples average of two replicates ± standard deviation. As to the method:
A cell based assay utilizing CHO-K1 cells overexpressing human or rat HER receptors is used to determine activity of NRG4 compounds. CHO-K1 cells (ATCC) are grown in DMEM-F12 3:1 with 5% FBS with 20 mM HEPES, 40 μg/mL L-Proline, lx antibiotics and were split 1:5 every 2-3 days with TripLE Express (Gibco). Cells are transfected with plasmid DNA encoding HER receptors in pairs (hHER2-3, hHER2-4, rHER2-3 and rHER2-4) with Fugene 6 (Promega) according to the manufacturer's instructions. […] Transfected cells are selected with Puromycin (12 ug/ml) and Hygromycin (1 mg/ml) for 3-4 weeks and clonal lines are obtained by limited dilution cloning into 96 well plates. Clonal lines are selected by appropriate gene expression of HER2, HER3 or HER4 by Taqman method. Lines with appropriate receptor expression are confirmed by NRG1 induced phospho-ERK 1/2 responses. Clones are grown up, harvested, aliquoted into cryovials and then frozen under liquid nitrogen for long-term storage.
A phospho-ERK1/2 activity assay is used to determine potencies of NRG4 compounds. The potency of Examples 1-8 and 10 as compared to WT human NRG1 and/or human NRG4 are analyzed in studies measuring stimulation of human HER2-HER4 mediated ERK 1/2 phosphorylation. This assay comprises a CHO-K1 stable line expressing human HER2 and HER4. CHO-hHER2-hHER4 (clone 1H6) cells are routinely cultured in DMEM: F12(3:1), 5% FBS, 40 μg/mL L-Proline, 10 μg/mL puromycin and 1 mg/mL hygromycin at 37° C., 5% CO2. Cells are washed twice with 1×PBS, dissociated with 0.05% trypsin/[…] EDTA and collected by centrifugation at 300×g for 10 m. Cells are re-suspended in maintenance media. 20,000 cells/well, in 30 μL, are seeded into 384 well Poly-D-Lysine cell culture plates (Greiner, Cat No. 781946). Plates are covered with a manufacturer's lid and moved to a 37° C. tissue culture incubator at 5% CO^2, 80%+ humidity and allowed to adhere. After 24 h, media are removed from the plates and replaced with 30 μL serum-free starvation media (Low glucose DMEM with 0.1% BSA) using a Biomek FX liquid handler. Plates are returned to the incubator for 24 h.
hFcNRG4 variants, transiently expressed as 293F supernatants, are prepared in starvation media in a clear 384W plate (Greiner, cat no. 781185) as a 4pt 1:8 serial dilution (dose range averaged between 250 pM to 140000 pM). Media are removed from the cell culture plates and the 30 uL/well prepared variants are stamped into the plates using a Biomek FX liquid handler. Plates are sealed with a foil seal and stimulated for 15 minutes at room temperature on an orbital shaker. Cells are then washed once with 50 uL cold PBS. 30 uL lysis buffer is added to the cells and oscillated for 10 m at RT on an orbital shaker.
Detection of phosphorylation of ERR 1/2 is performed with either an AlphaScreen SureFire phospho-ERK1/2 kit (T202/Y204) (Perkin Elmer, catalog no. TGRES) or an AlphaLISA® SureFire® Ultra™ p ERK1/2 assay kit together with the AlphaScreen Protein. A IgG Detection Kit (Protein-A) (PerkinElmer, catalogue no. 6760617). After lysis of the CHO-K1 cells. 4 μL lysate is transferred to a 384W Alpha Proxiplate (Perkin Elmer, cat no, 6008280) with a 384W Biomek FX. 4 uL positive and negative lysates (Perkin Elmer, TGRES-L) are added to available wells as controls. 5 uL/well acceptor mix (containing anti-phoso-Thr202/Tyr204 antibodies and Protein A conjugated acceptor beads) is added to the plate with a Forumlatrix Mantis. The plate is sealed, spun down for 1 min at 300×g and incubated for 2 hr at room temperature on an orbital shaker. 2 μL/well donor mix (containing strepavidin coated donor beads and biotinylated antibodies to a distal ERK1/2 epitope) is dispensed by Mantis. The plate is sealed, spun down for 1 min at 300×g and incubated for 2 hr at room temperature on an orbital shaker before reading on the Perkin Elmer Envision 2103 Multilabel Reader (HIS Alpha mode, excitation time: 40 ms, total measurement time: 130 ms). […]

Substitutions are numbered along the chain they refer to. Names and notes keep the numbering of the source. Where two headings read alike, the source gives them in different places. Bridges are numbered along the chain shown (N, C = ends). Where no end group is shown, it is not given here.

Usually half-life stands for the time in which the quantity being followed falls by half. Consider “H-GGGGSGHEEPCGPSHKSFCLNGGLCYQIPTIPSPFCRCVENYTGARCEKVFL (disulfide 11-25, 19-36, 38-47 (inferred)) [Example 9]”, for which, in data set [1], the “half-life after SC administration” value was “less than an hour”. For the same molecule, in the data set “in vivo [2]”, the level at time molar at 48 h came out at 40.1 nM. In addition, the level at time molar at 72 h in the data set “in vivo [2]” turned out to be 47.3 nM. Also, the level at time molar at 96 h in “in vivo [2]” was 31.4 nM; in “in vivo [4]” (0.22 mg/kg/day), 2.59 nM; in “in vivo [4]” (0.73 mg/kg/day), 9.94 nM. In data set [3], this molecule returned a half-life of less than 5 h. Moreover, the “Exposure in rat plasma, Mean” value in data set [5] (2.18 mg/kg/day SC infusion) is on record as 29.62 nM; in data set [5] (7.28 mg/kg/day SC infusion), 72.24 nM.

B1: Example 1: NRG4 D1G, (GGGGS)3 linker, SEQ ID NO: 10, fused to IgG Fc dimer SEQ ID NO: 6 and 7 (protein)
chain 1: GGGGSGGGGSGGGGSGHEEPCGPSHKSFCLNGGLCYVIPTIPSPFCRCVENYTGARCEEVFL
chain 2: ECPPCPAPPVAGPSVFLFPPKPKDTLMISRTPEVTCVVVDVSHEDPEVQFNWYVDGVEVHNAKTKPREEQFNSTFRVVSVLTVVHQDWLNGKEYKCKVSNKGLPAPIEKTISKTKGQPREPQVYTLPPSREEMTKNQVSLWCLVKGFYPSDIAVEWESNGQPENNYKTTPPVLDSDGSFFLYSKLTVDKSRWQQGNVFSCSVMHEALHNHYTQKSLSLSPG
chain 3: B1 chain 2 with W141S, L143A, Y182V
By EC50 is commonly meant the concentration needed to bring the measured effect to its halfway point. For B1, the “O.D. 405, binding to HER4 extracellular domain” value stood at 1.485 in data set [6] (Dose # 1: Example 1 10.65, WT NRG1 10, WT NRG4 17 μg/mL); 1.438 in data set [6] (Dose # 2: Example 1 5.325, WT NRG1 5, WT NRG4 8.5 μg/mL); 1.4 in data set [6] (Dose # 3: Example 1 2.6625, WT NRG1 2.5, WT NRG4 4.25 μg/mL); 1.332 in data set [6] (Dose # 4: Example 1 1.33125, WT NRG1 1.25, WT NRG4 2.125 μg/mL); 1.217 in data set [6] (Dose # 5: Example 1 0.665625, WT NRG1 0.625, WT NRG4 1.0625 μg/mL); 1.081 in data set [6] (Dose # 6: Example 1 0.332813, WT NRG1 0.3125, WT NRG4 0.53125 μg/mL). For the same molecule, the “O.D. 405, binding to HER4 extracellular domain” value in data set [6] (Dose # 7: Example 1 0.166406, WT NRG1 0.15625, WT NRG4 0.265625 μg/mL) is reported as 0.865; in data set [6] (Dose # 8: Example 1 0.083203, WT NRG1 0.078125, WT NRG4 0.132813 μg/mL) it was 0.607; in data set [6] (Dose # 9: Example 1 0.041602, WT NRG1 0.039063, WT NRG4 0.066406 μg/mL) it was 0.404; in data set [6] (Dose # 10: Example 1 0.020801, WT NRG1 0.019531, WT NRG4 0.033203 μg/mL), 0.235; in data set [6] (Dose # 11: Example 1 0.0104, WT NRG1 0.009766, WT NRG4 0.016602 μg/mL), 0.136; in data set [6] (Dose # 12: Example 1 0.0052, WT NRG1 0.004883, WT NRG4 0.008301 μg/mL) it was 0.096. Moreover, the EC50 with human HER2 and HER4 stood at 0.77 ± 0.16 nM.

For the origin of these results see patent US11242370B2, “Neuregulin-4 compounds and methods of use” (Eli Lilly and Company, priority 2019, dated 2022).
